Laboratory results reported in article PMC3882142.

Target: bacteriophage P22 coat protein (CP), assembled as the P22 VLP capsid (bacteriophage P22) (UniProt P26747)
Assay: SEC-MALS

Sequence of UniProt P26747 (P26747 whole entry): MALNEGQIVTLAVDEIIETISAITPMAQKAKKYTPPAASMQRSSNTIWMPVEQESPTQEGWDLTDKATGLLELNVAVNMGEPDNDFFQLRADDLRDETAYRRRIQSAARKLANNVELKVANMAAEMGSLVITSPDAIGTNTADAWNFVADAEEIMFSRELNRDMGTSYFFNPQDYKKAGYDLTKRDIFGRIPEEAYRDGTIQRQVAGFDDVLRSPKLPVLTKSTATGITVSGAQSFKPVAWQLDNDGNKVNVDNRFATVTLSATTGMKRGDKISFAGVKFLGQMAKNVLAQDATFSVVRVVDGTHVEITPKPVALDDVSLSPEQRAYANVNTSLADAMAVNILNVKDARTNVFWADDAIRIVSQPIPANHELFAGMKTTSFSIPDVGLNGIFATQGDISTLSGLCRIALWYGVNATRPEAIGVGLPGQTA

| Substance | stoichiometry N (proteins per capsid) |
| --- | --- |
| HA_(head)-SP fusion protein (hemagglutinin head of influenza fused to the truncated scaffold protein of P22) | 286 |
| GalA-SP fusion protein (alpha-galactosidase of Pyrococcus furiosus fused to the truncated scaffold protein of P22) | 183 |
